Assay results from the nanobody polyreactivity screen of Harvey et al. (2022).

Assay: yeast display, Sf9 membrane polyspecificity reagent, FACS + sequencing; frameworks hold sequencing errors
In short: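 Galactose induction of a Saccharomyces cerevisiae BJ5465 synthetic nanobody display library ran 36–48 hours. The cells were then stained for 1 hour at 4 °C with 10% biotinylated, detergent-solubilized Sf9 membrane reagent, pulled down on streptavidin microbeads and FACS-sorted into low and high (top ~1%) gates on expression and reagent-binding fluorescence. Labels for polyreactivity follow the gate of origin.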

Row | Sequence | polyreactivity (PSR sort gate)
1 | QVQLVESCGGLVQAGGSLRVSCAASGITFDGYAMGSYRQAPGKERELVAAITRRGGNTYYADSVKGRFTISRDNAKNTVHLQLNSQKPEDTAFYYCNAQVVHYRVSSVITYTIYDYSGQGTQVTVSS | high polyreactivity
2 | QVQLQEIGGGLVQAGGSLRQSYAASGYIFPSLAMGWYRQAQGKEREFVAAIGRGSTNNYADSVKGRFTISRDNAKNTAYQQMNSLKPEDTAVYYCAVVQRSKRTYPWYDYWGQGTQVTVSS | low polyreactivity
3 | QVQLVESGGGLVQAGGSLRLSCAASGYTFVYYAMGWYRQAPGKERELVAAITSGGRTNYADSVKGRFTISRDNAKNTVYLQMNSLKPEDTAVYYCARLDYRSVRYGLRGQGTQVTVSS | low polyreactivity
4 | QVQLVESGGGLVQAGGSLRLSCAASGSTFNIYTMGWYRQAPGKERELVARITFSGGSTYYADSVKGRFTISRDNAKNTVYLQMNSLKPEDTAVYYCAVRVYRVDHFGYDYWGQGTQVTVSS | high polyreactivity
5 | QVQLVESGGGLVQAGGSLRLSCAASGFIFGYYAMGLYRQAPVKERELVAAITSGTGTNYADSVKGRFTISRDNAKNTVYLQMNSLKPEDTAVYYCAAYYTWLSEFGYWGQGTQVTVSS | low polyreactivity
6 | QVQLVESGGGLVQAGRSLRLSCASSGRIFSSYAKGWYRQAPGKERELVAAITSGGSTDYADSVKGRFTISRDNAKNTVYLQIYRLNPEDTAVYYCAKAFLPPWTYSPYYLFYYWGQGTQVTVSS | low polyreactivity
7 | QVQLVESGGGLVQAGGSLRLSCAASGSIFYSNAMGWYRQAPGKEREFVATITQTGSSTYDADSVKGRFTISRDNAKNTVYLQMNSLKPEVTAVYYCAVDWILYEYEDDFWYRYDYWGQGTQVTVSS | low polyreactivity
8 | QVQLVESGGGLVQAGGSLRLSSAASGSTIRTNAMGWYRQAPGKATELVAAISKSGGRTYYADSVKGRFTISRDNAKNTVYFQMNSLKPEDTAVYYCNVPRDVVPKVRAHDYWGQGTQVTVSS | high polyreactivity
9 | QVQLVESGGGLVQAGGSLRLSCAASGITFDLYDMGWYRQAPGKERDFVAAITDADSTYYADSVKGRFTISRDNAKNTVYLQMNSLKPEDTAVYYCAADFFYSVYSGHYDYWGQGTQVTVSS | low polyreactivity
10 | QVQLVESGGGLVQAGGRLRLSCAASASTIVGNAMGWYRQAPGKERELVATISNSGGRTYYADSVKGRFTISRDNSKYTVYLQMNSLKPEDTAVYYCNADIYPHDGYPWQGDYDYWGQGTQVTVSS | low polyreactivity
11 | QVQLVESGGGLVQAGGSLRLICAASGRIFRGNAMGWYRQAPGKERELVAAISSGGSTNYADSVKGRFTISRDNEKNTVYLQMNSLKPEDTAVYYCAASRVRSYFGRYYWGQGTQVTVSS | high polyreactivity
12 | QVQLVESGGGLVQAGGSLRLSCAASGSIFVSEYVMGLSRPAPGKERELVARIRWSSGSTYYADSVKGRFTISRDNAKNTVYLQIYSLKPEDTAVYYCNKDYYYVIGWTYHRSYHYDYWGQGTQVTVSS | low polyreactivity
13 | QVQLVESGGGLVQAGGSLRLSCAASGSTFQIYAMGWYRQPPGKDRELVAANTSSSSTNYADSVKGRFTISRENAKNTVYLQMNSLKPEDTAVYYCAAAVSWRSNWYDYWGQGTQVTVSS | low polyreactivity
14 | QVQLVESGGGLVQAGGSLRLSCAASGLTFNGYTMGWYRQAPGKERELVAGITHSGSTTYTDSVKGRFTISRDNAKNTVYLQMNSLKPEDTAVYYCNARLGKVRVKDDYWGQGTQVTVSS | low polyreactivity
15 | QVQLVESAGGLVQAGGSLRLSCAASGSIFYRYVMGWYRQAPGKERELVAAITSDGSTNYADSVKGRFTISRDNAKNTVYLQMNSLKPEDSAVYYCNARSYRGRFDYWGLGTQVTVSS | low polyreactivity
16 | QVQLVESGGGLVQAGGSLRLSCAASGRTFDTNPMGWYRQAPGKERELVAVITARGGNTSYADSVKGRFTISRDNAKNTVYLQMNSLKPEDTAVYYCAARVYRAPWTYEEGNYWGQGTQVTVSS | low polyreactivity
17 | QVQLVESGGGLVQAGGSLRLICAASGSIFGHNAMGWYRQAPGKERELVAAINASDGNTYYADSVKGRFTISRDNAKNTVYLQMNSLKPEDTAVYYCAAEGYFDHYYYYRVYSWGQGTQVTVSS | low polyreactivity
18 | QVQLVESGGGLVQAGGSLRLSCAASGSNFRDNGMGWYRQAPGKERELVAAINSGDSTYYADSVKGRFTISRDNAKNTVYLQMNSLKPEDTAVYYCNADDRRALSQRQYDWYDYWGQGTQVTVSS | low polyreactivity
19 | QVQLVESGGGLVQAGGSLSLSCASSGSIFVRNVMGWYRQAPWKERELVATIRTRGGSTSYADSVKGRFTISRDNAKNTVYLQMNSLTPEDTAVYYCNARLSYRSAWYYGGDRYDYWGQGTQVTVSS | high polyreactivity
20 | QVQLVESGGGLVQAGGSLRLSCAASGITFSYNAMGWYRQAPGKERELVAAISDIGGSTYYADSVKGRFTISRDNAKNTVYLQMNSLKPEDTAVYYCAADEYYQDESDYWGQGTQVTVSS | low polyreactivity
21 | QVQLVESGVGLVQAGGSLRLSCAASGRTFDYNAMGWYIQAPGKERELVAAITSSGGSTYYADSVKGRFTISRDNAKNTVYLQMNSLKPEDTAVYYCDTDGQSPYYIYYWGQGTQVTVSS | low polyreactivity
22 | QVQLVESGGGLVQAGGSLRLSCAASGITFYGNAMGWYRQAPGNERELVAAITFSGGITYYADSVKGRFTISRDNAKNTVYLQMNSLKPEDTAVYDCATDPIGGWTRPQRYGDDYWGQGTQVTVSS | low polyreactivity

Row | Sequence | polyreactivity (PSR sort gate)
23 | QVQLVESGGGLVQAGGSLRLSCAASGSIFDGYGMGWYRQAAGKERELVAGITSGGSTYYADSVKGRFTFSRDNAKNTVYLQMNSLIPEDTAVYYCATVVRYSNARGDYWGQGTQVTVSS | low polyreactivity
24 | QVQLVESGGGLVQAGGSLRLSCAASGSISWWYAMGWYRQAPGKERELVAAISSRGGSTYYADSVKGRFTISRDNAKNTVYLQMNSLKPEDTAVYYCAKYYYVGTSFYQGDYWGQGTQVTVSS | low polyreactivity
25 | QVQLVESGGGLVQAGGSLRLSCAASGFTSRKNAMGWYRQAPGKERELVAAITQSSGRTYYADSVKGRFTISRDNAKNTVYLQMNSLKPEDTAVYYCAARRGGEDDYWGQGTQGTVSS | low polyreactivity
26 | QVQLVESGGGLVQAGGSLRLSCAASGRTFRANAMGWYRQAPGKERELFAAISKRGGNTYYADSVKGRFTISRDNAKNTVYLQMNSLKPEDTAVYYCADDFICRDYDYWGQGTQVTVSS | high polyreactivity
27 | QVQLVESGGGLVQAGGSLRLSCAASGRTFAYNAMGWYIQAPGKERELVASITSGGSTNYADSVKGRFTISRDNAKNTVYLQMNSLKPEDTAVYYCNKDGKYHRVLYDYWGQGTQVTVSS | low polyreactivity
28 | QVQLVESGGGLVQAGGSLRLSCAASGSTFRDNAMGWYRQAPGKERELVAAISRRGGNTYYADSVKGRFTISRDNAKNTVYLQMNSLKPEDTAVYYCAAEVKTSYSYTHDGYWGQGTQVTVSS | high polyreactivity
29 | QVQLVESGGGLVQAGGSLRLSCAASGSIFSKNAMGWYRQAPGKERELVAAITGGGSTYYADSVKGRFTISRDNAKNTVYLQMNSLKPEDTAVYYCAAEFYVWGQGTQVTVSS | low polyreactivity
30 | QVQLQESGGGLAQAGGSLRLSCAASGNIFDADIMGWYRKAPGKERELVGSITDGGSTNYVDSVKGRFTISRDNAKNTVHLQMNSLKPEDTAVYYCAAIAYPEIPTYFDYDSDCFNWGHGTQVTVSS | high polyreactivity
31 | QVQLVESGGGLVQAGGSLLLSCAASGSTFPHYTMGWYSQAPGKEREWVAVISRSGRTYYADSVKGRFTISRDNAKNTVYLQMNSLKPEDTAVYYCAVLVGRLVWSYNHWGQGTQGTVSS | high polyreactivity
32 | QVQLVESGGGLVQAGGSLRLSCAASGRIIGTNAMGWYRQAPGKEREMVAAITWRGGSTYYADSVKGRFTYSRDNAKNTVYLQKNSLKPEDTAVYYCNKDPPRFSGLDENDWGQGTQVTVSS | low polyreactivity
33 | QVQLVESGGGLVQAGGSLRLSCAASGSTFWANAMGWYRQAPGKERELVAAITSTGITYYADSVKGRFTISRDNAKNTVYLQMNSLKPEDTAVYYCAADGYRYSVYLIRNPMDYWGQGTQVTVSS | low polyreactivity
34 | QVQLQESGGGLVQAGGSLRLGCAASGYISGFNEMGWYRQAPGKGRELDAAITYGGITNYADSVKGRFTISRDNAKNTVYLQMNSLKPEDTAMYYCAAGDFDQSNHAYWGQDTQVTVSS | high polyreactivity
35 | QVQLVESGGGLVQAGGSLRLSCAASGSTFRYYAMGWYRQAPGKERELVAAITFDGGTTSYADSVKGRFTISRDNAKNTVYLQMNSLKPEDTAVYYCAREGRTYWSKSISPYWRYGYWGQGTQVTVSS | high polyreactivity
36 | QVQLVESGGGLVQAGGSLRLSCAASGSTLYKYAMGWYRQAPGKERELVAAISWSGSSTYYADSVKGRFTISRDNAKNTVYLQMNSLKPEDTAVYYCAAYPRPYIGYTDGYVWYEFDYWGQGTQVTVSS | low polyreactivity
37 | QVQLVESGGGLVQEGGSLRLSCAASGRIFYSNAMGWYRQAPGKERENVAAISWSGGGTYYADSVKGRFTISRDNAKNTVYLQMNSLKPEDTAVYYCAAVFGYSWAFEYDYWGQGTQVTVSS | low polyreactivity
38 | QVQLVESGGGLVQAGGSLRLSCAASGRTFLIYDMGWYRQAPGKVRELVAAIRDRGATTYYADSVKGRFTISRDNAKNTVYLHMNSLKPEDTSVYYCSARNGAYPALKEGDYWGQGTQVTVSS | high polyreactivity
39 | QVQLVESGGGLVQAGGSLRLSCAASGRIFAGNAMGWYRQAPGKERELVAAISNGGSTYYADSVKGRFTISRDNAKNTVYLQMNSLKPEDTAVYYCNARTRLRKYQYYYWGQGTQVTVSS | high polyreactivity
40 | QVHLVESGGGLVQAGGSLRLSCAASGFTFDYNAMGWYRQAPGKEMELVAAISGSGGSTYYADSVKGRFTISRDNAKNTVYLQMNSLKPEDSSVYYCNAGRVTRRDTFDYWGQGTQVTVSS | high polyreactivity
41 | QVQLVESVGGLVQAGGSLRLSCSDSGSTFKSYAMGWYRQSPGKERELVAAITHRGSTYYADSVKGRFTISRDNAKNTVYVQMNSLKPEDTAVYYCNVRRIGNGRRVDYCGQGTQVTVSS | high polyreactivity
42 | QVQLVESGGGLVQAGGSLRLSCAASGSTFKLYAMGWYRPAPGKERELVAAITRSGTRTYYADSVKGRFTISRDNAKNTVYLQMNSLKPEDTAVYYCAADGYRISGYDYWGQGTQVTVSS | high polyreactivity
43 | QVQLQESGGGLVQAGGSLRLSCAASGYISSWYPMGWYRQAPGKEREFVATIAPGATTYYADSVKGRFTISRDYAKNTVYLQMNSLKPEDTAVYYCAAGPLNNDFYSYWGQGTQVTVSS | low polyreactivity
